Assay results as given in patent CN113546252A.

Target: 人PCSK9-D347Y (human) (UniProt Q8NBP7)
Assay: cell-based or functional assay

促LDL内吞 (HepG2细胞LDL摄取法) EC50 [µg/mL] | Substance
0.0927 | JS002 (antibody)
0.151 | Evolocumab (antibody)
